# Source: patent publication US20260217860A1
# Assays:
# [1] = target: monkey (Macaca fascicularis) MUC1 on CHO-S-fasMUC1 cells (monkey (Macaca fascicularis)); assay: flow cytometry, transfected CHO-S cells
# [2] = target: human EGFR on CHO-S-hEGFR cells (human) (UniProt P00533); assay: flow cytometry, transfected CHO-S cells
# [3] = target: monkey EGFR on CHO-S-fasEGFR cells (monkey) (UniProt P55245); assay: flow cytometry, transfected CHO-S cells
# [4] = target: human MUC1 (484 amino acids) on CHO-S-hMUC1 (484AA) cells (human) (UniProt P15941); assay: flow cytometry, transfected CHO-S cells
# [5] = target: monkey (Macaca fascicularis) MUC1 on CHO-S-fasMUC1 cells (monkey (Macaca fascicularis)); assay: flow cytometry, transfected CHO-S cells, secondary antibody only
# [6] = target: human EGFR on CHO-S-hEGFR cells (human) (UniProt P00533); assay: as above
# [7] = target: monkey EGFR on CHO-S-fasEGFR cells (monkey) (UniProt P55245); assay: as above
# [8] = target: human MUC1 (484 amino acids) on CHO-S-hMUC1 (484AA) cells (human) (UniProt P15941); assay: as above
# monkey (Macaca fascicularis) MUC1 on CHO-S-fasMUC1 cells (monkey (Macaca fascicularis)), sequence (chain, as listed by the source): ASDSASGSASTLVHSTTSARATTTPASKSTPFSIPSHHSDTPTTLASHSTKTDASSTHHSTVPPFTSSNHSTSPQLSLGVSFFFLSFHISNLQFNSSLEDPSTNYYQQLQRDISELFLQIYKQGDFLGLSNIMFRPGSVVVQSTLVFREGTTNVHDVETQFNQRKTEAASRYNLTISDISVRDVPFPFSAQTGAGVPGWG
Substance,Percentage of Positive Cells (%) [1] [%],Percentage of Positive Cells (%) [2] [%],Percentage of Positive Cells (%) [3] [%],Percentage of Positive Cells (%) [4] [%],Percentage of Positive Cells (%) [5] [%],Percentage of Positive Cells (%) [6] [%],Percentage of Positive Cells (%) [7] [%],Percentage of Positive Cells (%) [8] [%]
"isotype control (ISO), an antibody targeting an irrelevant target protein",1.15,0.7,0.58,4.05,,,,
"secondary antibody anti-hIgG-Fc-Alex Flour 647 (RLI-H) (Jackson ImmunoResearch Laboratories, Inc., Cat #: 109-606-170)",,,,,0.91,0.66,0.19,2
